# Measurements from the supplement of paper PMC12338614.
# ± gives the uncertainty stated by the source.
# B1: library; numbered along this chain (parent)
# chain: MEVVDPQQLGMFTEGELMSVGMDTFIHRIDSTEVIYQPRRKRAKLIGKYLMGDLLGEGSYGKVKEVLDSETLCRRAVKILKKKKLRRIPNGEANVKKEIQLLRRLRHKNVIQLVDVLYNEEKQKMYMVMEYCVCGMQEMLDSVPEKRFPVCQAHGYFCQLIDGLEYLHSQGIVHKDIKPGNLLLTTGGTLKISDLGVAEALHPFAADDTCRTSQGSPAFQPPEIANGLDTFSGFKVDIWSAGVTLYNITTGLYPFEGDNIYKLFENIGKGSYAIPGDCGPPLSDLLKGMLEYEPAKRFSIRQIRQHSWFRKKHPPAEAPVPIPPSPDTKDRWRSMTVVPYLEDLHGADEDEDLFDIEDDIIYTQDFTVPGQVPEEEASHNGQRRGLPKAVCMNGTEAAQLSTKSRAEGRAPNPARKACSASSKIRRLSACKQQ
# Variants of: B1
# Assay: STK11 functional score (HeLa growth suppression), rescaled enrichment; synonymous median = 1, nonsense median = 0 (normalised score)
# Settings: with HeLa; variant type: missense
# Method: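 Deep mutational scan (TileSeq/POPCode codon randomisation) of full-length codon-optimised STK11 cDNA integrated at a Bxb1 landing pad (AAVS1) in HeLa cells. Restoring functional STK11 suppresses HeLa proliferation. Variant frequencies were measured by NGS before and after about two weeks of growth. The error-corrected enrichment log-ratio was rescaled so that synonymous median = 1 and nonsense median = 0, scores above 1 were compressed, and codon-level and three biological replicate scores were combined; error is the bootstrapped standard error. Scale: synonymous median = 1, nonsense median = 0; below 0.5 = damaging.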
row,Variant,STK11 functional score
1,V320H,1.59 ± 0.27
2,R103Q,1.27 ± 0.41
3,R384M,1.36 ± 0.16
4,S240G,1.05 ± 0.16
5,S240I,0.369 ± 0.095
6,L201F,0.797 ± 0.33
7,L201S,0.759 ± 0.098
8,R75K,1.51 ± 0.44
9,D352Q,0.828 ± 0.15
10,H202I,1.31 ± 0.21
11,T363H,1.17 ± 0.46
12,Y246I,1.13 ± 0.095
13,Y118E,-0.175 ± 0.13
14,Y118W,0.378 ± 0.09
15,Y118S,0.99 ± 0.1
16,D162E,0.171 ± 0.15
17,P369G,1.56 ± 0.26
18,K178T,0.951 ± 0.27
19,F366M,1.48 ± 0.27
20,K423E,1.62 ± 0.12
21,V20G,1.43 ± 0.12
22,E121S,1.17 ± 0.1
23,E121P,1.66 ± 0.23
24,Q100V,1.39 ± 0.2

row,Variant,STK11 functional score
1,I177M,0.6 ± 0.17
2,L80S,0.479 ± 0.1
3,K81F,0.987 ± 0.086
4,E92R,1.64 ± 0.4
5,E145L,1.16 ± 0.17
6,V128H,0.71 ± 0.17
7,P280W,0.665 ± 0.16
8,P280N,1.63 ± 0.21
9,L117F,0.858 ± 0.21
10,I322M,0.829 ± 0.47
11,A347I,1.52 ± 0.17
12,R87G,1.11 ± 0.083
13,L285W,-0.0646 ± 0.056
14,K329A,1.58 ± 0.16
15,V236I,1.24 ± 0.96
16,V236A,1.56 ± 0.4
17,S271C,0.412 ± 0.07
18,R86E,1.6 ± 0.14
19,H27I,0.637 ± 0.096
20,E120I,1.55 ± 0.18
21,S216E,-0.148 ± 0.092
22,S216M,0.227 ± 0.12
23,S216K,-0.0726 ± 0.095
24,G385R,1.13 ± 0.32

row,Variant,STK11 functional score
1,G385H,1.56 ± 0.25
2,Y36L,1.03 ± 0.23
3,Q214T,1.64 ± 0.2
4,Q214P,0.598 ± 0.18
5,Q214G,1.57 ± 0.22
6,M22F,1 ± 0.23
7,M127W,0.627 ± 0.31
8,C73D,1.49 ± 0.27
9,S283E,0.826 ± 0.5
10,Y166L,0.75 ± 0.13
11,Y166M,0.651 ± 0.08
12,W239G,-0.0583 ± 0.093
13,W239R,0.273 ± 0.15
14,W239M,0.267 ± 0.092
15,A417R,1.6 ± 0.28
16,D207M,1.17 ± 0.12
17,D207N,0.668 ± 0.74
18,D207P,1.01 ± 0.7
19,D207Y,0.314 ± 0.099
20,M51V,0.725 ± 0.34
21,L190P,0.0599 ± 0.15
22,K82D,1.17 ± 0.19
23,K82S,1.15 ± 0.26
24,A377S,1.24 ± 0.24

row,Variant,STK11 functional score
1,A377K,1.63 ± 0.28
2,L167R,-0.0722 ± 0.082
3,R304K,1.31 ± 0.65
4,M18E,1.56 ± 0.2
5,M18D,0.127 ± 0.19
6,Y253F,0.587 ± 0.17
7,D68P,1.08 ± 0.12
8,D343V,1.21 ± 0.64
9,I111V,0.948 ± 0.079
10,I111S,0.535 ± 0.15
11,L286T,1.12 ± 0.14
12,R415G,1.53 ± 0.18
13,R415Y,1.49 ± 0.16
14,R415E,1.48 ± 0.33
15,S19Y,1.01 ± 0.15
16,E223T,0.188 ± 0.086
17,Q382G,1.4 ± 0.24
18,Q302H,1.12 ± 0.3
19,D348A,1.54 ± 0.24
20,N90R,1.01 ± 0.18
21,L182A,0.345 ± 0.096
22,L182T,1.12 ± 0.39
23,L182I,1.56 ± 0.16
24,L140Y,-0.0286 ± 0.081

row,Variant,STK11 functional score
1,L140D,0.0191 ± 0.11
2,G91C,0.164 ± 0.23
3,G91L,1.54 ± 0.13
4,F255P,0.517 ± 0.11
5,L45W,1.65 ± 0.16
6,L45D,1.34 ± 0.11
7,M139I,1.01 ± 0.15
8,H168W,0.545 ± 0.6
9,H168L,0.263 ± 0.078
10,E138R,-0.217 ± 0.089
11,E138I,1.48 ± 0.37
12,N412P,1.56 ± 0.35
13,K191A,1.12 ± 0.22
14,R383A,1.44 ± 0.36
15,R383E,1.57 ± 0.27
16,R383W,0.781 ± 0.14
17,Q37W,0.288 ± 0.12
18,I361V,1.6 ± 0.24
19,I361S,1.46 ± 0.16
20,P89T,0.786 ± 0.13
21,L9I,1.37 ± 0.3
22,R405L,1.59 ± 0.28
23,E291N,0.978 ± 0.52
24,K262P,1.56 ± 0.25

row,Variant,STK11 functional score
1,P314Q,1.17 ± 0.14
2,L386N,0.528 ± 0.64
3,E374Y,1.29 ± 0.38
4,Q170P,0.0405 ± 0.082
5,G288R,0.927 ± 0.28
6,G288I,-0.0856 ± 0.36
7,G196A,0.488 ± 0.5
8,L184H,0.93 ± 0.43
9,S307A,1.49 ± 0.15
10,A389C,1.51 ± 0.32
11,A389H,1.51 ± 0.12
12,G61P,0.916 ± 0.26
13,P411G,1.14 ± 0.49
14,P221I,0.337 ± 0.12
15,P221G,1.03 ± 0.14
16,I161P,0.918 ± 0.66
17,R310F,1.35 ± 0.15
18,E265W,1.57 ± 0.21
19,L102W,1.2 ± 0.079
20,K44T,0.843 ± 0.28
21,K44F,1.34 ± 0.26
22,D277T,1.59 ± 0.32
23,K124N,1.27 ± 0.36
24,K124R,1.18 ± 0.52

row,Variant,STK11 functional score
1,E16K,0.291 ± 0.28
2,C132P,-0.178 ± 0.083
3,H313P,0.624 ± 0.47
4,A397R,1.46 ± 0.33
5,A397D,1.32 ± 0.35
6,N109D,0.477 ± 0.18
7,E342Q,1.23 ± 0.3
8,E342W,1.19 ± 0.28
9,E342S,1.39 ± 0.25
10,L54N,1.64 ± 0.18
11,L54F,0.99 ± 0.078
12,E130C,0.373 ± 0.08
13,S334D,1.45 ± 0.13
14,D284A,0.668 ± 0.26
15,D284T,0.863 ± 0.19
16,S213T,1.05 ± 0.33
17,D365I,1.47 ± 0.25
18,G370A,1.21 ± 0.58
19,D330G,1.23 ± 0.73
20,G171R,1.24 ± 0.38
21,S422N,0.705 ± 0.48
22,D358V,1.46 ± 0.2
23,D358H,0.325 ± 0.53
